Measurements taken from patent US20220119534A1 (DRAGONFLY THERAPEUTICS, published 2022).
Where “and” joins values, the source holds several entries; their conditions need not be identical. Equal values may be shown once.

Legend:
[1] = molecular target: T1, Human CD32a H131 (FcγRIIa H131) (human, UniProt P12318 36-218, limits assumed, biotinylated); test: SPR 25C, average
T1 construct: Bought recombinant receptor; also called hFcγRIIa H131; FcgRIIa H131
T1 sequence (looked up): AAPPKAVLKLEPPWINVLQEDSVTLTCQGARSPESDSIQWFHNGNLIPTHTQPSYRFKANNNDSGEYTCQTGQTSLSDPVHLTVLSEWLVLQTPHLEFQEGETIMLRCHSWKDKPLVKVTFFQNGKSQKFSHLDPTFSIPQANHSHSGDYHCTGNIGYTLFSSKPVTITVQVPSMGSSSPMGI

[2] = molecular target: T2, Human CD32a R131 (FcγRIIa R131) (human, UniProt P12318 36-218, limits assumed, biotinylated); test: SPR 25C, average
T2 construct: Bought recombinant receptor; also called hFcγRIIa R131; FcgRIIa R131
T2 sequence (looked up): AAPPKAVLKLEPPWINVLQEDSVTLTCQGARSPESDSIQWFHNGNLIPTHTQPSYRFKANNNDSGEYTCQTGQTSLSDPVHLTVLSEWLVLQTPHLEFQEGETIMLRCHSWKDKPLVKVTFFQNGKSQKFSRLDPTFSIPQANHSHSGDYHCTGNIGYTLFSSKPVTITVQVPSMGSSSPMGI

[3] = molecular target: T3, Human CLEC12A expressed on cells (Ba/F3-hCLEC12A, PL21, HL60) (human, UniProt Q5QGZ9 1-265); test: cell-based or functional assay
T3 sequence: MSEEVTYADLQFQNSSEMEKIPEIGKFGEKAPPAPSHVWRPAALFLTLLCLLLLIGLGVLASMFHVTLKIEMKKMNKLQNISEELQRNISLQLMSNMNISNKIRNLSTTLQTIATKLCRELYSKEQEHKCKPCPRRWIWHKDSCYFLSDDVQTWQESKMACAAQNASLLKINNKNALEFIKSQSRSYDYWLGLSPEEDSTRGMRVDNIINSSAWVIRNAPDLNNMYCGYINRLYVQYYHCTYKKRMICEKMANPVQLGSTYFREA

[4] = molecular target: T3, Human CLEC12A expressed on cells …; test: flow cytometry on PL21 AML cells
[5] = molecular target: T4, mFc-hNKG2D (recombinant mFc-tagged human NKG2D dimer) (human, UniProt P26718 73-216); test: SPR 37C, 1:1 kinetic fit, average
T4 construct: extracellular domain; Made in house; not shown: mouse Fc tag
T4 sequence (looked up): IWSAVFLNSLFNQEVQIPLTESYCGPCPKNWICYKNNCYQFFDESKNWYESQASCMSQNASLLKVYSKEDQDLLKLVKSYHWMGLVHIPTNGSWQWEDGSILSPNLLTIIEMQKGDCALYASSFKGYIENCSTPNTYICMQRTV

Human CD32b (FcγRIIb) = molecular target: T5, Human CD32b (FcγRIIb) (human, UniProt P31994 46-217, limits assumed, biotinylated); test: SPR 25C, biotinylated CD32b captured
T5 construct: Bought recombinant receptor; also called hFcγRIIb; CD32b (FcγR2b)
T5 sequence (looked up): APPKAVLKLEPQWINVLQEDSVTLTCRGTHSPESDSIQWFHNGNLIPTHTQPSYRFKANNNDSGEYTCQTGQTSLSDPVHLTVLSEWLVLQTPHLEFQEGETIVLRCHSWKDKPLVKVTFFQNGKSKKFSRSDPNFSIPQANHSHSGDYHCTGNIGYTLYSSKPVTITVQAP

[6] = molecular target: T6, Human CLEC12A-His (recombinant, K244 WT) (human, UniProt Q5QGZ9 65-265); test: SPR, two-state fit; control (fully purified protein study)
T6 construct: Made in house (Dragonfly Tx); also called hCLEC12A; hCLEC12A-His; not shown: His tag
T6 sequence: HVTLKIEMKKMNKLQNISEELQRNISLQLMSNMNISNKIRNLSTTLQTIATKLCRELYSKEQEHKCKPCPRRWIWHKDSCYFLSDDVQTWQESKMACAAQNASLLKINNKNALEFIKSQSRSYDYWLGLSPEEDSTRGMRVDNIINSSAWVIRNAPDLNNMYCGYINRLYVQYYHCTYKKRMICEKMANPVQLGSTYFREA

Kd [1]: 900 nM | Kd [2]: 1250 nM | % Max, ADCP activity of M0 macrophages against PL21 cells [3]: 15% | EC50, ADCP activity of M0 macrophages against PL21 cells [3]: 0.03 nM | EC50 [4]: 0.45 nM | Kd [5]: 881 nM | koff [5]: 0.143 s⁻¹ | kon [5]: 162000 M⁻¹ s⁻¹ | Kd (Human CD32b (FcγRIIb)): 7100 nM and 5300 nM and 7400 nM | Kd [6]: 0.51 nM
B1: AB0089 TriNKET (bispecific antibody, human IgG1, kappa)
chain: QLQLQESGPGLVKPSETLSLTCTVSGFSLTNYGLHWIRQPPGKCLEWIGVIWVGGATDYNPSLKSRVTISVDTSKNQFSLKLSSVQAADTAVYYCAKGDYGDTLDYWGQGTLVTVSSGGGGSGGGGSGGGGSGGGGSDIQMTQSPSSLSASVGDRVTITCHASQNINFWLSWYQQKPGKAPKLLIYEASNLHTGVPSRFSGSGSGTDFTLTISSLQPEDFATYYCQQSHSYPLTFGCGTKLEIKGSDKTHTCPPCPAPELLGGPSVFLFPPKPKDTLMISRTPEVTCVVVDVSHEDPEVKFNWYVDGVEVHNAKTKPREEQYNSTYRVVSVLTVLHQDWLNGKEYKCKVSNKALPAPIEKTISKAKGQPREPRVYTLPPCRDELTKNQVSLTCLVKGFYPSDIAVEWESNGQPENNYKTTPPVLVSDGSFTLYSKLTVDKSRWQQGNVFSCSVMHEALHNHYTQKSLSLSPG
heavy: EVQLVESGGGLVKPGGSLRLSCAASGFTFSSYSMNWVRQAPGKGLEWVSSISSSSSYIYYADSVKGRFTISRDNAKNSLYLQMNSLRAEDTAVYYCARGAPIGAAAGWFDPWGQGTLVTVSSASTKGPSVFPLAPSSKSTSGGTAALGCLVKDYFPEPVTVSWNSGALTSGVHTFPAVLQSSGLYSLSSVVTVPSSSLGTQTYICNVNHKPSNTKVDKKVEPKSCDKTHTCPPCPAPELLGGPSVFLFPPKPKDTLMISRTPEVTCVVVDVSHEDPEVKFNWYVDGVEVHNAKTKPREEQYNSTYRVVSVLTVLHQDWLNGKEYKCKVSNKALPAPIEKTISKAKGQPREPQVCTLPPSRDELTENQVSLTCLVKGFYPSDIAVEWESNGQPENNYKTTPPVLDSDGSFFLYSWLTVDKSRWQQGNVFSCSVMHEALHNHYTQKSLSLSPG
light: DIQMTQSPSSVSASVGDRVTITCRASQGISSWLAWYQQKPGKAPKLLIYAASSLQSGVPSRFSGSGSGTDFTLTISSLQPEDFATYYCQQGVSFPRTFGGGTKVEIKRTVAAPSVFIFPPSDEQLKSGTASVVCLLNNFYPREAKVQWKVDNALQSGNSQESVTEQDSKDSTYSLSSTLTLSKADYEKHKVYACEVTHQGLSSPVTKSFNRGEC
notes: F3' format heterodimer of three chains; human IgG1 Fc with EW-RVT and Y349C/S354C mutations; also called AB0089 Lot AB0089-002; CLEC12A TriNKET AB0089
